The supplement of paper PMC7125110
± gives the standard error. Fewer inactive variants are shown than the library holds.

B1: glmS ribozyme (parent)
chain: AUAAAAGCGCCAGAACUACAGAAAUGUAGUUGACGAGGAGGAGGUUUAUCGAAUUUUCGGCGGAUGCCUCCAAA

Legend:
Conditions in all cases: with glucosamine-6-phosphate
glucosamine-6-phosphate [1] = variants of: B1; experiment: self-cleavage kobs at 160 uM GlcN6P; higher = faster cleavage; RNA array
Summary of the method: (§1)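 Barcoded ribozyme variants, transcribed in situ by E. coli RNA polymerase on sequenced MiSeq chips, were followed via a hybridised Cy3 probe at 37 °C. Glucosamine-6-phosphate ranged from 40 μM to 10 mM in HEPES/KCl/Mg(OAc)2 buffer. kobs came from decay fits to per-tile medians, and kcat and KM from weighted Michaelis–Menten fits.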

glucosamine-6-phosphate [2] = variants of: B1; experiment: self-cleavage kobs at 640 uM GlcN6P; higher = faster cleavage; RNA array
Summary of the method: as §1

glucosamine-6-phosphate [3] = variants of: B1; experiment: self-cleavage kobs at 2500 uM GlcN6P; higher = faster cleavage; RNA array
Summary of the method: as §1

glucosamine-6-phosphate [4] = variants of: B1; experiment: self-cleavage kobs at 10000 uM GlcN6P; higher = faster cleavage; RNA array
Summary of the method: as §1

Variant	self-cleavage kobs at 160 uM GlcN6P (glucosamine-6-phosphate [1]) [s⁻¹]	self-cleavage kobs at 640 uM GlcN6P (glucosamine-6-phosphate [2]) [s⁻¹]	self-cleavage kobs at 2500 uM GlcN6P (glucosamine-6-phosphate [3]) [s⁻¹]	self-cleavage kobs at 10000 uM GlcN6P (glucosamine-6-phosphate [4]) [s⁻¹]
G7A U30C A64C	< 1e-05	< 1e-05	< 1e-05	
G13C A14G U55G G59U C68G	0.000122 ± 5.4e-05	0.000281 ± 7e-05	9.91e-05 ± 3.7e-05	
A33U G38A A39G	< 1e-05	< 1e-05		
G38C U45A	< 1e-05	< 1e-05		
G7U G13U A15U G40C G41A A52U	< 1e-05	< 1e-05	< 1e-05	
A39C G51U C71A	< 1e-05			
C8A G29C G32C	< 1e-05			
G7U C8U A12G G51C C61U	< 1e-05	< 1e-05		
A12U U69G C70A	7.03e-05 ± 2.1e-05	8.9e-05 ± 2.3e-05	3.11e-05 ± 1.5e-05	
A6C C8U C10G A12U G38U	< 1e-05	< 1e-05	< 1e-05	
A12G A15U A53C C67A	< 1e-05			
U49C G51C	< 1e-05	< 1e-05	< 1e-05	
G9U A48U U57A	< 1e-05		< 1e-05	< 1e-05
C8U G60U C68U	< 1e-05	< 1e-05	< 1e-05	< 1e-05
U45C A48U U69C	< 1e-05	< 1e-05		
G29U U65A C68G	5.02e-05 ± 1.1e-05	6.79e-05 ± 1.4e-05	3.55e-05 ± 1.3e-05	
C8U U47C G62U	< 1e-05	< 1e-05		
G43C C71G	< 1e-05	< 1e-05	< 1e-05	
U31G G43U G66U	< 1e-05		< 1e-05	
C34A U57G	< 1e-05			< 1e-05
G44A U54C U65G C68G	< 1e-05	< 1e-05	< 1e-05	
C16A U49C	< 1e-05	< 1e-05		< 1e-05
A6G A36G U56A	< 1e-05	< 1e-05	< 1e-05	
G13A C50G C61G	0.000169 ± 2.6e-05	0.000203 ± 3.6e-05	0.000114 ± 2.2e-05	
C50A G51C U55C G60U	< 1e-05			< 1e-05

Variant	self-cleavage kobs at 160 uM GlcN6P (glucosamine-6-phosphate [1]) [s⁻¹]	self-cleavage kobs at 640 uM GlcN6P (glucosamine-6-phosphate [2]) [s⁻¹]	self-cleavage kobs at 2500 uM GlcN6P (glucosamine-6-phosphate [3]) [s⁻¹]	self-cleavage kobs at 10000 uM GlcN6P (glucosamine-6-phosphate [4]) [s⁻¹]
U57C G63A	< 1e-05	< 1e-05	< 1e-05	< 1e-05
G37A G59A G62A	< 1e-05			
G62A U65G	< 1e-05	< 1e-05	< 1e-05	< 1e-05
G9U A33C C67G	< 1e-05		< 1e-05	
G29A U30G G35A G38U U46A C71G	< 1e-05			
G9U G29A G35U U46G	< 1e-05	< 1e-05	< 1e-05	
G7C G9U A36G C68A	< 1e-05	< 1e-05	< 1e-05	
A52C A53G G62C	< 1e-05			< 1e-05
U30A G41U U57G G62A	< 1e-05	< 1e-05	< 1e-05	
C8A A33U A64G C67U C71G	< 1e-05			
A12C A64C C68A C71A	< 1e-05	< 1e-05	< 1e-05	
G9A C67A C68G	< 1e-05	< 1e-05	< 1e-05	
U30C A36G	< 1e-05			< 1e-05
A42U U45C A52G G59U	< 1e-05			
C10G G40C	< 1e-05	< 1e-05		< 1e-05
C8G A42U C58U	< 1e-05		< 1e-05	
G43U U69C C70G	< 1e-05	< 1e-05		
A14U U45A U46C	0.000306 ± 0.0001	0.00108 ± 0.00027	0.00191 ± 0.00053	
G7U C10A G29C U57C	< 1e-05	< 1e-05	< 1e-05	
A6C A36G C50U C67U	< 1e-05		< 1e-05	
G9C A33U A36G U45A A48C	< 1e-05	< 1e-05	< 1e-05	
C34A U45G G66U U69G	< 1e-05	< 1e-05	< 1e-05	
C11G A14G U31C A42G U56G A64U U65A	< 1e-05	< 1e-05		
G9C A12G	< 1e-05		< 1e-05	< 1e-05
C10G A48G A64U U65A	< 1e-05	< 1e-05	< 1e-05	
